Test [1] deals with T1, Claudin 18.2 (CLDN18.2), expressed on CHOS-CLDN 18.2 / HEK293-CLDN 18.2 / HCC827-CLDN 18.2 cells (human, UniProt P56856-2 1-261).
T1 construct: whole, on cells; The species is not repeated for the CHOS-CLDN 18.2 cells; also called claudin-18A2
Description: FACS, CHOS-CLDN18.2 cells, 0 µg/ml (background). For orientation: Flow cytometry measures light scatter and fluorescence of single cells or particles in a stream.
Description: (§1) The initial concentration of the antibody was 20 μg/ml, it was diluted at 1:4, and incubated at 4° C. for 60 min.

For test [2], the target named is T1, Claudin 18.2 (CLDN18.2), expressed on …. Description: FACS, CHOS-CLDN18.2 cells, 0.020 µg/ml.
Description: as §1
Test [3] has the same target. Nature of the test: FACS, CHOS-CLDN18.2 cells, 0.020 µg/ml. The source holds these as a separate data set.
Description: as §1
Test [4] has the same target. Nature of the test: FACS, CHOS-CLDN18.2 cells, 0.313 µg/ml.
Description: as §1
Test [5] has the same target. Description: FACS, CHOS-CLDN18.2 cells, 0.078 µg/ml.
Description: as §1
Test [6] shares this target. Description: FACS, CHOS-CLDN18.2 cells, 0.078 µg/ml. This is another data set of the same source.
Description: as §1
The target is the same in test [7]. Nature of the test: FACS, CHOS-CLDN18.2 cells.
Description: as §1
Test [8] shares this target. Nature of the test: FACS, CHOS-CLDN18.2 cells, 0 µg/ml (background). This is another data set of the same source.
Description: as §1
For test [9] the target is unchanged. Description: FACS, CHOS-CLDN18.2 cells, 20 µg/ml.
Description: as §1
Test [10] has the same target. Nature of the test: FACS, CHOS-CLDN18.2 cells, 0.078 µg/ml. This is another data set of the same source.
Description: as §1
For test [11] the target is unchanged. Nature of the test: FACS, CHOS-CLDN18.2 cells, 0.020 µg/ml. This is another data set of the same source.
Description: as §1
Test [12] has the same target. Nature of the test: FACS, CHOS-CLDN18.2 cells, 5 µg/ml.
Description: as §1
Test [13] shares this target. Description: FACS, CHOS-CLDN18.2 cells, 0.020 µg/ml. This is another data set of the same source.
Description: as §1

This note sets out measurements from patent publication US20230183352A1 (published 2023).

Usually EC50 stands for the concentration at which the effect is half-maximal. A lower EC50 goes with a more potent agent.

B1: QP024025 (antibody, human IgG1, V domains shown)
VH: QVQLQQPGAELVRPGASVKLSCKASGYTFTSYWINWVKQRPGQGLEWIGNIYPSDSYTNYNQKFKDKATLTVDKSSSTAYMQLSSPTSEDSAVYYCTRSWRGNSFDYWGQGTTLTVSS
VL: DIVMTQSPSSLTVTAGEKVTMSCKSSQSLLNSGNQKNYLTWYQQKPGQPPKLLIYWASTRESGVPDRFTGSGSGTDFTLTISSVQAEDLAVYYCQNDYSYPFTFGSGTKLEIK
notes: also called IMAB362; 175D10(IMAB362)
B1: the FACS reading in [1] turned out to be 732; in [2] it was 6950; in test [3], 6950; in test [4] it was 51000; in test [5] it was 18200; in [6] it was 18200. The FACS reading in test [8] is 732; in [9], 72300; in test [10], 18200; in [11], 6950; in test [12] it was 105000; in test [13], 6950. In test [7], this molecule showed an EC50 of 0.27 µg/mL. This molecule registered a max in test [7] of 88600.
